Assay results reported in US20030186281A1, “Modified tetracycline repressor protein compositions and methods of use” (priority 2001, published 2003).

Test system: tet operator sequence
Experiment: β-galactosidase activity of a tetracycline-regulated promoter in transformed E. coli with revTetR, in the presence and absence of anhydrotetracycline (atc)
Assay type: cell-based, Escherichia coli
Details: for β-Galactosidase Activity, Cultured Without ATC: RevTetR isolate cultured in the absence of anhydrotetracycline (ATC); for β-Galactosidase Activity, Cultured With ATC: RevTetR isolate cultured in the presence of anhydrotetracycline (ATC)
Method in brief: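 TetR(BD) chimera mutants (TetR(B) residues 1–50, TetR(D) 51–208) expressed in E. coli regulating a tet operator-controlled lacZ. β-Galactosidase measured in Miller units at 28 °C and 37 °C with and without anhydrotetracycline; reported as percent of maximal expression without Tet repressor.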

Row | Molecule | β-Galactosidase Activity, Cultured Without ATC | β-Galactosidase Activity, Cultured With ATC
1 | TetRrev6-27: revTetR(BD) A71T G96E (protein, Modified tetracycline repressor, revTetR(BD) A71T G96E) MSRLDKSKVINSALELLNEVGIEGLTTRKLAQKLGVEQPTLYWHVKNKRALLDALAVEILARHHDYSLPATGESWQSFLRNNAMSFRRALLRYRDEAKVHLGTRPDEKQYDTVETQLRFMTENGFSLRDGLYAISAVSHFTLGAVLEQQEHTAALTDRPAAPDENLPPLLREALQIMDSDDGEQAFLHGLESLIRGFEVQLTALLQIV | 108.105 | 44.43
2 | TetRrev6-50: revTetR(BD) V99G (protein, Modified tetracycline repressor, revTetR(BD) V99G) MSRLDKSKVINSALELLNEVGIEGLTTRKLAQKLGVEQPTLYWHVKNKRALLDALAVEILARHHDYSLPAAGESWQSFLRNNAMSFRRALLRYRDGAKGHLGTRPDEKQYDTVETQLRFMTENGFSLRDGLYAISAVSHFTLGAVLEQQEHTAALTDRPAAPDENLPPLLREALQIMDSDDGEQAFLHGLESLIRGFEVQLTALLQIV | 60.464 | 2.469
3 | TetRrev4/6-5: revTetR(BD) A54S V99R (protein, Modified tetracycline repressor, revTetR(BD) A54S V99R) MSRLDKSKVINSALELLNEVGIEGLTTRKLAQKLGVEQPTLYWHVKNKRALLDSLAVEILARHHDYSLPAAGESWQSFLRNNAMSFRRALLRYRDGAKRHLGTRPDEKQYDTVETQLRFMTENGFSLRDGLYAISAVSHFTLGAVLEQQEHTAALTDRPAAPDENLPPLLREALQIMDSDDGEQAFLHGLESLIRGFEVQLTALLQIV | 97.92 | 5.7
4 | TetRrev6-34: revTetR(BD) R94L D95A H100 (protein, H100 change unspecified; Modified tetracycline repressor, revTetR(BD) R94L D95A H100) MSRLDKSKVINSALELLNEVGIEGLTTRKLAQKLGVEQPTLYWHVKNKRALLDALAVEILARHHDYSLPAAGESWQSFLRNNAMSFRRALLRYLAGAKVQLGTRPDEKQYDTVETQLRFMTENGFSLRDGLYAISAVSHFTLGAVLEQQEHTAALTDRPAAPDENLPPLLREALQIMDSDDGEQAFLHGLESLIRGFEVQLTALLQIV | 85.725 | 40.254
5 | TetRrev6-54: revTetR(BD) Y93F D95N V99F (protein, Modified tetracycline repressor, revTetR(BD) Y93F D95N V99F) MSRLDKSKVINSALELLNEVGIEGLTTRKLAQKLGVEQPTLYWHVKNKRALLDALAVEILARHHDYSLPAAGESWQSFLRNNAMSFRRALLRFRNGAKFHLGTRPDEKQYDTVETQLRFMTENGFSLRDGLYAISAVSHFTLGAVLEQQEHTAALTDRPAAPDENLPPLLREALQIMDSDDGEQAFLHGLESLIRGFEVQLTALLQIV | 6.393 | 1.268
6 | TetRrev6-38: revTetR(BD) Y93H G96W K98Q V99G (protein, Modified tetracycline repressor, revTetR(BD) Y93H G96W K98Q V99G) MSRLDKSKVINSALELLNEVGIEGLTTRKLAQKLGVEQPTLYWHVKNKRALLDALAVEILARHHDYSLPAAGESWQSFLRNNAMSFRRALLRHRDWAQGHLGTRPDEKQYDTVETQLRFMTENGFSLRDGLYAISAVSHFTLGAVLEQQEHTAALTDRPAAPDENLPPLLREALQIMDSDDGEQAFLHGLESLIRGFEVQLTALLQIV | 96.194 | 46.91
7 | TetRrev6-53: revTetR(BD) A97P K98R V99D (protein, Modified tetracycline repressor, revTetR(BD) A97P K98R V99D) MSRLDKSKVINSALELLNEVGIEGLTTRKLAQKLGVEQPTLYWHVKNKRALLDALAVEILARHHDYSLPAAGESWQSFLRNNAMSFRRALLRYRDGPRDHLGTRPDEKQYDTVETQLRFMTENGFSLRDGLYAISAVSHFTLGAVLEQQEHTAALTDRPAAPDENLPPLLREALQIMDSDDGEQAFLHGLESLIRGFEVQLTALLQIV | 107.107 | 27.918
8 | TetRrev6-31: revTetR(BD) G96Q G102S (protein, Modified tetracycline repressor, revTetR(BD) G96Q G102S) MSRLDKSKVINSALELLNEVGIEGLTTRKLAQKLGVEQPTLYWHVKNKRALLDALAVEILARHHDYSLPAAGESWQSFLRNNAMSFRRALLRYRDQAKVHLSTRPDEKQYDTVETQLRFMTENGFSLRDGLYAISAVSHFTLGAVLEQQEHTAALTDRPAAPDENLPPLLREALQIMDSDDGEQAFLHGLESLIRGFEVQLTALLQIV | 55.658 | 35.26
9 | TetRrev6-33: revTetR(BD) A97T K98R V99G (protein, Modified tetracycline repressor, revTetR(BD) A97T K98R V99G) MSRLDKSKVINSALELLNEVGIEGLTTRKLAQKLGVEQPTLYWHVKNKRALLDALAVEILARHHDYSLPAAGESWQSFLRNNAMSFRRALLRYRDGTRGHLGTRPDEKQYDTVETQLRFMTENGFSLRDGLYAISAVSHFTLGAVLEQQEHTAALTDRPAAPDENLPPLLREALQIMDSDDGEQAFLHGLESLIRGFEVQLTALLQIV | 108.964 | 2.984
10 | TetRrev6-3: revTetR(BD) V99G H100P (protein, Modified tetracycline repressor, revTetR(BD) V99G H100P) MSRLDKSKVINSALELLNEVGIEGLTTRKLAQKLGVEQPTLYWHVKNKRALLDALAVEILARHHDYSLPAAGESWQSFLRNNAMSFRRALLRYRDGAKGPLGTRPDEKQYDTVETQLRFMTENGFSLRDGLYAISAVSHFTLGAVLEQQEHTAALTDRPAAPDENLPPLLREALQIMDSDDGEQAFLHGLESLIRGFEVQLTALLQIV | 23.0695 | 1.3657
11 | TetRrev6-37-1: revTetR(BD) G96R A97S V99L (protein, Modified tetracycline repressor, revTetR(BD) G96R A97S V99L) MSRLDKSKVINSALELLNEVGIEGLTTRKLAQKLGVEQPTLYWHVKNKRALLDALAVEILARHHDYSLPAAGESWQSFLRNNAMSFRRALLRYRDRSKLHLGTRPDEKQYDTVETQLRFMTENGFSLRDGLYAISAVSHFTLGAVLEQQEHTAALTDRPAAPDENLPPLLREALQIMDSDDGEQAFLHGLESLIRGFEVQLTALLQIV | 55.277 | 20.04
12 | TetRrev4/6-4: revTetR(BD) D95A V99G V57V A61G (protein, Modified tetracycline repressor, revTetR(BD) D95A V99G V57V A61G) MSRLDKSKVINSALELLNEVGIEGLTTRKLAQKLGVEQPTLYWHVKNKRALLDALAVEILGRHHDYSLPAAGESWQSFLRNNAMSFRRALLRYRAGAKGHLGTRPDEKQYDTVETQLRFMTENGFSLRDGLYAISAVSHFTLGAVLEQQEHTAALTDRPAAPDENLPPLLREALQIMDSDDGEQAFLHGLESLIRGFEVQLTALLQIV | 96.491 | 1.639
13 | TetRrev6-51: revTetR(BD) A97T V99G (protein, Modified tetracycline repressor, revTetR(BD) A97T V99G) MSRLDKSKVINSALELLNEVGIEGLTTRKLAQKLGVEQPTLYWHVKNKRALLDALAVEILARHHDYSLPAAGESWQSFLRNNAMSFRRALLRYRDGTKGHLGTRPDEKQYDTVETQLRFMTENGFSLRDGLYAISAVSHFTLGAVLEQQEHTAALTDRPAAPDENLPPLLREALQIMDSDDGEQAFLHGLESLIRGFEVQLTALLQIV | 93.974 | 4.499
14 | TetRrev6-32: revTetR(BD) L79V A97T K98R V99G (protein, Modified tetracycline repressor, revTetR(BD) L79V A97T K98R V99G) MSRLDKSKVINSALELLNEVGIEGLTTRKLAQKLGVEQPTLYWHVKNKRALLDALAVEILARHHDYSLPAAGESWQSFVRNNAMSFRRALLRYRDGTRGHLGTRPDEKQYDTVETQLRFMTENGFSLRDGLYAISAVSHFTLGAVLEQQEHTAALTDRPAAPDENLPPLLREALQIMDSDDGEQAFLHGLESLIRGFEVQLTALLQIV | 79.3731 | 3.789
15 | TetRrev4/6-3: revTetR(BD) D95A V99G (protein, Modified tetracycline repressor, revTetR(BD) D95A V99G) MSRLDKSKVINSALELLNEVGIEGLTTRKLAQKLGVEQPTLYWHVKNKRALLDALAVEILARHHDYSLPAAGESWQSFLRNNAMSFRRALLRYRAGAKGHLGTRPDEKQYDTVETQLRFMTENGFSLRDGLYAISAVSHFTLGAVLEQQEHTAALTDRPAAPDENLPPLLREALQIMDSDDGEQAFLHGLESLIRGFEVQLTALLQIV | 69.291 | 0.878
16 | TetRrev6-35: revTetR(BD) D95Y V99E (protein, Modified tetracycline repressor, revTetR(BD) D95Y V99E) MSRLDKSKVINSALELLNEVGIEGLTTRKLAQKLGVEQPTLYWHVKNKRALLDALAVEILARHHDYSLPAAGESWQSFLRNNAMSFRRALLRYRYGAKEHLGTRPDEKQYDTVETQLRFMTENGFSLRDGLYAISAVSHFTLGAVLEQQEHTAALTDRPAAPDENLPPLLREALQIMDSDDGEQAFLHGLESLIRGFEVQLTALLQIV | 74.8797 | 7.0255
